Reference: paper PMC10460399 (Nature Communications, 2023)
Several values for one entry are separate records, joined by “and”; a condition that tells them apart may be missing. Equal entries are not always repeated.

B1: 50-bp dsRNA (dsRNA)
RNA 1: GAGACUUGGGCAAUGUGACUGCUGAUCAGCAGUCACAUUGCCCAAGUCUCUU
RNA 2: B1 RNA 1
B2: 19-bp dsRNA (siRNA duplex) (dsRNA)
RNA 1: GAGACUUGGGCAAUGUGAAGU
RNA 2: GUCACAUUGCCCAAGUCUCUU
B3: DmDcr-2 mutant (D1217N/D1476N, DmDcr-2^DDNN) (enzyme, Drosophila melanogaster, UniProt A1ZAW0 1-1722, looked up)
chain: MEDVEIKPRGYQLRLVDHLTKSNGIVYLPTGSGKTFVAILVLKRFSQDFDKPIESGGKRALFMCNTVELARQQAMAVRRCTNFKVGFYVGEQGVDDWTRGMWSDEIKKNQVLVGTAQVFLDMVTQTYVALSSLSVVIIDECHHGTGHHPFREFMRLFTIANQTKLPRVVGLTGVLIKGNEITNVATKLKELEITYRGNIITVSDTKEMENVMLYATKPTEVMVSFPHQEQVLTVTRLISAEIEKFYVSLDLMNIGVQPIRRSKSLQCLRDPSKKSFVKQLFNDFLYQMKEYGIYAASIAIISLIVEFDIKRRQAETLSVKLMHRTALTLCEKIRHLLVQKLQDMTYDDDDDNVNTEEVIMNFSTPKVQRFLMSLKVSFADKDPKDICCLVFVERRYTCKCIYGLLLNYIQSTPELRNVLTPQFMVGRNNISPDFESVLERKWQKSAIQQFRDGNANLMICSSVLEEGIDVQACNHVFILDPVKTFNMYVQSKGRARTTEAKFVLFTADKEREKTIQQIYQYRKAHNDIAEYLKDRVLEKTEPELYEIKGHFQDDIDPFTNENGAVLLPNNALAILHRYCQTIPTDAFGFVIPWFHVLQEDERDRIFGVSAKGKHVISINMPVNCMLRDTIYSDPMDNVKTAKISAAFKACKVLYSLGELNERFVPKTLKERVASIADVHFEHWNKYGDSVTATVNKADKSKDRTYKTECPLEFYDALPRVGEICYAYEIFLEPQFESCEYTEHMYLNLQTPRNYAILLRNKLPRLAEMPLFSNQGKLHVRVANAPLEVIIQNSEQLELLHQFHGMVFRDILKIWHPFFVLDRRSKENSYLVVPLILGAGEQKCFDWELMTNFRRLPQSHGSNVQQREQQPAPRPEDFEGKIVTQWYANYDKPMLVTKVHRELTPLSYMEKNQQDKTYYEFTMSKYGNRIGDVVHKDKFMIEVRDLTEQLTFYVHNRGKFNAKSKAKMKVILIPELCFNFNFPGDLWLKLIFLPSILNRMYFLLHAEALRKRFNTYLNLHLLPFNGTDYMPRPLEIDYSLKRNVDPLGNVIPTEDIEEPKSLLEPMPTKSIEASVANLEITEFENPWQKYMEPVDLSRNLLSTYPVELDYYYHFSVGNVCEMNEMDFEDKEYWAKNQFHMPTGNIYGNRTPAKTNANVPALMPSKPTVRGKVKPLLILQKTVSKEHITPAEQGEFLAAITASSAADVFDMERLEILGNSFLKLSATLYLASKYSDWNEGTLTEVKSKLVSNRNLLFCLIDADIPKTLNTIQFTPRYTWLPPGISLPHNVLALWRENPEFAKIIGPHNLRDLALGDEESLVKGNCSDINYNRFVEGCRANGQSFYAGADFSSEVNFCVGLVTIPNKVIADTLEALLGVIVKNYGLQHAFKMLEYFKICRADIDKPLTQLLNLELGGKKMRANVNTTEIDGFLINHYYLEKNLGYTFKDRRYLLQALTHPSYPTNRITGSYQELEFIGNAILDFLISAYIFENNTKMNPGALTDLRSALVNNTTLACICVRHRLHFFILAENAKLSEIISKFVNFQESQGHRVTNYVRILLEEADVQPTPLDLDDELDMTELPHANKCISQEAEKGVPPKGEFNMSTNVDVPKALGDVLEALIAAVYLDCRDLQRTWEVIFNLFEPELQEFTRKVPINHIRQLVEHKHAKPVFSSPIVEGETVMVSCQFTCMEKTIKVYGFGSNKDQAKLSAAKHALQQLSKCDA
notes: Dicer-2 (DmDcr-2) of Drosophila melanogaster, full length, with D1217N/D1476N (no dicing activity, helicase activity kept); also called Dicer-2; source: sf9 cells (Bac-to-Bac baculovirus), co-expressed with R2D2, purified (Ni-NTA, Hitrap Q, 2nd Ni-NTA, SEC)
B4: Loqs-PD (Loquacious isoform D), full length (natural protein, Drosophila melanogaster, UniProt Q9VJY9-4 1-359, looked up)
chain: MDQENFHGSSLPQQLQNLHIQPQQASPNPVQTGFAPRRHYNNLVGLGNGNAVSGSPVKGAPLGQRHVKLKKEKISAQVAQLSQPGQLQLSDVGDPALAGGSGLQGGVGLMGVILPSDEALKFVSETDANGLAMKTPVSILQELLSRRGITPGYELVQIEGAIHEPTFRFRVSFKDKDTPFTAMGAGRSKKEAKHAAARALIDKLIGAQLPESPSSSAGPSVTGLTVAGSGGDGNANATGGGDASDKTVGNPIGWLQEMCMQRRWPPPSYETETEVGLPHERLFTIACSILNYREMGKGKSKKIAKRLAAHRMWMRLQETPIDSGKISDSICGELEGEVSIIQDIDRYEQVSKDFEFIKI
notes: Only a small segment of the C-terminus is seen in the maps; also called Loqs isoform D; source: Escherichia coli BL21 (DE3), purified (Ni-NTA, ULP1 cleavage, second Ni-NTA, SEC)

What was measured:
[1] = target: T1, DmDcr-2 DDNN;R2D2;Loqs-PD (Drosophila melanogaster;Drosophila …, UniProt A1ZAW0;Q9VLW8;Q9VJY9-4 1-1722;1-311;1-359, D1217N;D1476N||); assay: cryo-EM; ATP, Mg2+; Dimer state; Cryo-EM sample buffer not in material; protein SEC buffer 100 mM NaCl, 20 mM Tris-HCl pH 8.0, 1 mM DTT; oligomers formed with ATP and Mg2+; settings: protein: recombinant;recombinant;recombinant; tags: purified by Ni-NTA
[2] = target: T1, DmDcr-2 DDNN;R2D2;Loqs-PD; assay: cryo-EM; ATP, Mg2+; Trimer state (EMD-34708); Cryo-EM sample buffer not in material; protein SEC buffer 100 mM NaCl, 20 mM Tris-HCl pH 8.0, 1 mM DTT; oligomers formed with ATP and Mg2+; settings: protein: recombinant;recombinant;recombinant; tags: purified by Ni-NTA
[3] = target: the molecule itself; assay: cryo-EM structure; DmDcr-2^DDNN/R2D2/Loqs-PD complex with 50-bp dsRNA 1:1, 25 °C for 2 h, diluted to 1 uM in SEC buffer with 5 mM ATP and 5 mM MgCl2
[4] = target: B3; assay: as above; settings: both partners purified
[5] = target: T2, DmDcr-2^DDNN/R2D2 complex (Drosophila melanogaster, UniProt A1ZAW0 1-1722; Q9VLW8 1-311, D1217N | D1476N); assay: SEC; purified DmDcr-2^DDNN/R2D2 and Loqs-PD mixed at a molar ratio of 1:1.5, on ice for 1 h; Superose 6 10/300 Increase in SEC buffer (100 mM NaCl, 20 mM Tris-HCl pH 8.0, 1 mM DTT); settings: both partners purified
T2 construct: Dicer-2 (DmDcr-2) of Drosophila melanogaster, full length, with D1217N/D1476N; as m1; R2D2 of Drosophila, full length; as m2; Complex formed beforehand, to which Loqs-PD was added; also called DmDcr-2/R2D2; source: sf9 cells (Bac-to-Bac baculovirus), co-expressed, purified (Ni-NTA, Hitrap Q, 2nd Ni-NTA, SEC)

B1
binding result [1]: binds

B2
binding result [2]: binds

B3
stoichiometry N [3]: 2 and 3

B4
binding result [4]: binds | binding result [5]: binds
